Experimental findings from US20180074053A1 (priority 2016, published 2018) are described below.

Like-named read-outs stand apart in the source and are kept apart here. Non-standard residues stand in square brackets, D forms with d. No end group written: not given here.

One experiment addresses MC4 (Homo sapiens, UniProt P32245). The experiment can be described thus: cell-based. On the procedure: The platform uses ChemiScreen GPCR stable cell lines that are used for real-time calcium flux assays to rapidly, screen a spectrum of GPCRs. […] Percentage activation values were determined upon initial addition of compound(s). Percentage activation and inhibition values were determined for each GPCR relative to the reference compounds.
Assays were performed according to the manufacturer's instructions. […] The assay plate was read by the FLIPR TETRA® (Molecular Devices, Sunnyvale, Calif.). All assay plate data were subjected to appropriate baseline corrections and the maximum fluorescence values were processed to calculate percentage activation (relative to ECmax reference agonist and vehicle control values).

The target of the next experiment is GPCR109a (Homo sapiens, UniProt Q8TDS4). To be noted: doses of 5 mM and below; FIG. 6A. On the procedure: (§1) Cells were grown in DMEM medium containing 10% FBS, 1× non-essential amino acids (Gibco #111450-040), 20 mM HEPES and 250 μg/mL Geneticin® (Gibco #10131-035). Cells were harvested with 0.25% Trypsin/EDTA (Gibco #25200-056), pelleted at 1,200×g for 6 minutes and resuspended in DMEM media described above minus Geneticin®. The cells were seeded at 4×10^4 cells/well/100 μL of a clear bottom/black 96-well plate and grown overnight. The calcium mobilization assays was performed using Screen Quest Fluo-8 Medium Removal Calcium Assay Kit (AAT Bioquest #36308) according to the manufacturer's protocol. Briefly, cells were washed with 100 μL volume of Hank's balanced salt solution, 20 mM HEPES, pH 7.4 and loaded with a buffer containing HBSS, 20 mM HEPES, 1× Pluronic F127 and the Fluo-8 NW dye. The cells were incubated for 30 minutes at 37° C. followed by a 30 minute room temperature incubation. Drug stocks were prepared at 100× concentration and diluted 1:33 in HBSS, 20 mM HEPES, pH 7.4 in a 96-well plate (Corning #3641). Calcium mobilization was measured using the FlexStation 3 (Molecular Devices) at excitation wavelength of 490 nm and emission wavelength of 525 nm. Fluorescence was measured for 180 seconds at 5 second intervals with the addition of compound at a 1:3 dilution after 15 seconds. Peak fluorescence values were calculated using SoftMax Pro 5 (Molecular Devices). The fluorescence values obtained from control wells without cells are subtracted from wells containing treated cells to correct for background. The ratio of fluorescence values of treated cells to vehicle control wells was used to calculate fold activity of the compounds.
(§2) The specificity of the agonist activity was determined by testing in the cell lines that over-express GPCR40 and GPCR 109a.

Another experiment deals with GPCR40 (Homo sapiens, UniProt O14842). To be noted: doses of 5 mM and below; FIG. 7A. On the procedure: as §1, §2
The next experiment concerns the target MRGD (Homo sapiens, UniProt Q8TDS7). The experiment can be described thus: Calcium mobilization in MRGD over-expressing cells. Format: cell-based. Further details: host or cells: ChemiScreen over-expressing cell line, given as 'HEK 293T cells (Chem-1, EMD Millipore)'. To be noted: at 5 mM, highest dose used; Example 4. On the procedure: as §1
MRGD cells (EMD Millipore, MA) were treated with either β-alanine, or alamandine at various concentrations (FIG. 10) and calcium mobilization was monitored using a FlexStation 3 Microplate Reader (Molecular Devices) as described in Example 4.
Background: A change in cytosolic calcium serves as a functional read-out for many receptors and channels.

Experiment [1] has as its target Motilin (GPCR target; motilin receptor) (UniProt O43193 1-412, limits assumed). In words: cell-based or functional assay.
Another experiment has as its target T1, NPBW1 (UniProt P48145 1-328).
T1 sequence (looked up): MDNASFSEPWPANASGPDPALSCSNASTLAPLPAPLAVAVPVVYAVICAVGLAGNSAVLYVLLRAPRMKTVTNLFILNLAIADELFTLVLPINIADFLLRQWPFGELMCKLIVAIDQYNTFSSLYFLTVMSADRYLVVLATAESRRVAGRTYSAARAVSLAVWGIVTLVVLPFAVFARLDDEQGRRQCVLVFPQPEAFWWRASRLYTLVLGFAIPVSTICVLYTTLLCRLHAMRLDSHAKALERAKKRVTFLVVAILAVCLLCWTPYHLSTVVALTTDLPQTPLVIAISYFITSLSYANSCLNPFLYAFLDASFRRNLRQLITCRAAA
The experiment can be described thus: cell-based or functional assay.

The target in a further experiment is MCHR2 (UniProt Q969V1 1-340, limits assumed). In words: cell-based or functional assay.
Experiment [2] deals with GPCR40, the free fatty acid receptor (human, UniProt O14842 1-300). The experiment can be described thus: cell-based or functional assay.
Another experiment deals with T2, NMUR1 (UniProt Q9HB89 1-426, limits assumed).
T2 sequence (looked up): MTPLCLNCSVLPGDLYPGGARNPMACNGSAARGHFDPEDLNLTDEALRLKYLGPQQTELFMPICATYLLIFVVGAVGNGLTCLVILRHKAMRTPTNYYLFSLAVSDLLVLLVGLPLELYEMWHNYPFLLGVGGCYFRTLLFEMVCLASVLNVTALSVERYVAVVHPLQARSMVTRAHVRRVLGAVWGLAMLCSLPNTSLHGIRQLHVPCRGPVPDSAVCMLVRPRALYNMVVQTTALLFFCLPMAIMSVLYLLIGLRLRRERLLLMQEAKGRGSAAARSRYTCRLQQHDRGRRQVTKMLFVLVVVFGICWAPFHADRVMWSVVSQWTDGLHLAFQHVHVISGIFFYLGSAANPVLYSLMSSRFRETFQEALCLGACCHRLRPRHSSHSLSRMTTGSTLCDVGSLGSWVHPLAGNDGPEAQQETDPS
In words: cell-based or functional assay.

Chain of GPCR40, the free fatty acid receptor (O14842 whole entry): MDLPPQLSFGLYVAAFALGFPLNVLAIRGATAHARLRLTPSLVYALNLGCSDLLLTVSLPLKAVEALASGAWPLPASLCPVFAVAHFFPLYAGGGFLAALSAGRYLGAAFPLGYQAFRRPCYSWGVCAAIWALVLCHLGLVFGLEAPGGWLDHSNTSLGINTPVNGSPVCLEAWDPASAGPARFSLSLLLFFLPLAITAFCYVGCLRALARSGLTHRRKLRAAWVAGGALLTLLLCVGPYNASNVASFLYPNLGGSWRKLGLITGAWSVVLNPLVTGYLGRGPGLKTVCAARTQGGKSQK
Chain of Motilin (GPCR target; motilin receptor) (O43193 whole entry): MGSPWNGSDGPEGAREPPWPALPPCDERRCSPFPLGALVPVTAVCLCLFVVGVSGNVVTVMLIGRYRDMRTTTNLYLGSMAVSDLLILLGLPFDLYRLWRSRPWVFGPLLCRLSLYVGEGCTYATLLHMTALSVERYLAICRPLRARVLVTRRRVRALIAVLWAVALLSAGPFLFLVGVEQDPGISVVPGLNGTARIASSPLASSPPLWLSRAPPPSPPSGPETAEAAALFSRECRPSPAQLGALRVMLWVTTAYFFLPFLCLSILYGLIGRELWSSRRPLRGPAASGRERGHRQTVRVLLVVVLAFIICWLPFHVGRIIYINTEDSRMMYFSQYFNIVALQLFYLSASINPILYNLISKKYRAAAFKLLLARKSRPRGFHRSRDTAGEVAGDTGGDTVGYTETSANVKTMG
Chain of MC4 (P32245 whole entry): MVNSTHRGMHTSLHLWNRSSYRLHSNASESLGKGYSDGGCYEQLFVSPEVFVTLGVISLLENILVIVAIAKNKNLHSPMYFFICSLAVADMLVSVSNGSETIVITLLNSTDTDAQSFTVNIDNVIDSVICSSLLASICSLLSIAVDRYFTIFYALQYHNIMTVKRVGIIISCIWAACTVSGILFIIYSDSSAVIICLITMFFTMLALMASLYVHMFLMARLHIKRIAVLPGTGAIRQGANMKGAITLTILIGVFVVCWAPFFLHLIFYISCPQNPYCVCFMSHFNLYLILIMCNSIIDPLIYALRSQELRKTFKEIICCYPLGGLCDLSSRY
Chain of MCHR2 (Q969V1 whole entry): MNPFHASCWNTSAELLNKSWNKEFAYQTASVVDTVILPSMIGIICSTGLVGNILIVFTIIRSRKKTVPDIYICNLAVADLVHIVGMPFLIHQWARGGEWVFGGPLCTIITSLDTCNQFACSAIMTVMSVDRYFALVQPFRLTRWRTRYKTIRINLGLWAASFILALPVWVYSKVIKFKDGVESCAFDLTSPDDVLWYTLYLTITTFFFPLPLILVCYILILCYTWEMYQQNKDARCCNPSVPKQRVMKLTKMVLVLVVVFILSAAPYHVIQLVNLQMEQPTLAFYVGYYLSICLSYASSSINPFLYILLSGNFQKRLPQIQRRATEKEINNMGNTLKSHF
Chain of GPCR40 (O14842 whole entry): as the sequence (O14842 whole entry) above
Chain of GPCR109a (Q8TDS4 whole entry): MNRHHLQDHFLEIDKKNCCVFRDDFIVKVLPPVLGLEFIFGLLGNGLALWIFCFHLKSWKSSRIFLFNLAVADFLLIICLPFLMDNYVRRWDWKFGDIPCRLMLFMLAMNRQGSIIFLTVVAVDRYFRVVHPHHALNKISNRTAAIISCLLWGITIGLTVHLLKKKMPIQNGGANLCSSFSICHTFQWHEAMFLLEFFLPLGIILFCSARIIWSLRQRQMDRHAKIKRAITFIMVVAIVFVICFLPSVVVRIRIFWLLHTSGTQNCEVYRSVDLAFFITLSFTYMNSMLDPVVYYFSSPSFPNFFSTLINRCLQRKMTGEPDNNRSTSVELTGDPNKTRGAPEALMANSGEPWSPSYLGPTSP
Chain of MRGD (Q8TDS7 whole entry): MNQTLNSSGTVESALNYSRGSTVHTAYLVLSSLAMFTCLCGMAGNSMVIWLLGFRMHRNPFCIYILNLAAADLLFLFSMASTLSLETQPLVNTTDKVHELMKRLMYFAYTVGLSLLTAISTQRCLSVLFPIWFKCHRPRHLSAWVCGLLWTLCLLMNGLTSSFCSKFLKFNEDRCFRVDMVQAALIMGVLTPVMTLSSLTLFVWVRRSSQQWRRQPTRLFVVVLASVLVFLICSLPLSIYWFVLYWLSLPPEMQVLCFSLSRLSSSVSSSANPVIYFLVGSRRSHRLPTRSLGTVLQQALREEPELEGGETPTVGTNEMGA

Turning to `CC(C)C[C@@H](NC(=O)CNC(=O)CN)C(=O)O`, the activation at 1250 µM at MC4 (read-out: percent activation compared to standards, DT-110 @ 1.25 mM, Avg.) is -0.5%; on MC4 (read-out: percent activation compared to standards, DT-110 @ 1.25 mM, n1) it was 3%; at MC4 (read-out: percent activation compared to standards, DT-110 @ 1.25 mM, n2), -4%. Also, the activation at 12500 µM on MC4 (read-out: percent activation compared to standards, DT-110 @ 12.5 mM, Avg.) is 3.4%; at MC4 (read-out: percent activation compared to standards, DT-110 @ 12.5 mM, n1), -0.2%; on MC4 (read-out: percent activation compared to standards, DT-110 @ 12.5 mM, n2), 7%. Also, the “agonist activity (Ca2+ flux)” value on GPCR109a and at GPCR40 was “inactive” throughout. Besides, at MRGD, the calcium mobilization activity entry is given as “active”.
In the case of Gly-Gly-[dL] [DT-110, tripeptide glycine-glycine-D-leucine (GGdL)], in experiment [1], the “percent activation (calcium flux, GPCRProfiler), DT-110 @ 1.25 mM, Avg.” value is -0.3%; the “percent activation (calcium flux, GPCRProfiler), DT-110 @ 1.25 mM, n1” value was -0.3%; the “percent activation (calcium flux, GPCRProfiler), DT-110 @ 1.25 mM, n2” value was -0.3%; the “percent activation (calcium flux, GPCRProfiler), DT-110 @ 12.5 mM, Avg.” value is -0.4%. Besides, in experiment [1], the “percent activation (calcium flux, GPCRProfiler), DT-110 @ 12.5 mM, n1” value is -0.3% and the “percent activation (calcium flux, GPCRProfiler), DT-110 @ 12.5 mM, n2” value is -0.5%. Moreover, in the experiment with NPBW1, the “percent activation (calcium flux, GPCRProfiler), DT-110 @ 1.25 mM, Avg.” value worked out at 0.2%; the “percent activation (calcium flux, GPCRProfiler), DT-110 @ 1.25 mM, n1” value was 1.6%; the “percent activation (calcium flux, GPCRProfiler), DT-110 @ 1.25 mM, n2” value is -1.1%; the “percent activation (calcium flux, GPCRProfiler), DT-110 @ 12.5 mM, Avg.” value is -0.9%. In the experiment with NPBW1, the “percent activation (calcium flux, GPCRProfiler), DT-110 @ 12.5 mM, n1” value is -0.8% and the “percent activation (calcium flux, GPCRProfiler), DT-110 @ 12.5 mM, n2” value was -0.9%. Further, in the experiment with MCHR2, the “percent activation (calcium flux, GPCRProfiler), DT-110 @ 1.25 mM, Avg.” value came out at 0.5%; the “percent activation (calcium flux, GPCRProfiler), DT-110 @ 1.25 mM, n1” value came to 0.1%; the “percent activation (calcium flux, GPCRProfiler), DT-110 @ 1.25 mM, n2” value worked out at 0.8%; the “percent activation (calcium flux, GPCRProfiler), DT-110 @ 12.5 mM, Avg.” value was -0.9%. In the experiment with MCHR2, the “percent activation (calcium flux, GPCRProfiler), DT-110 @ 12.5 mM, n1” value is -0.8% and the “percent activation (calcium flux, GPCRProfiler), DT-110 @ 12.5 mM, n2” value was -0.9%. In addition, in experiment [2], the “percent activation (calcium flux, GPCRProfiler), DT-110 @ 1.25 mM, Avg.” value is -9.5%; the “percent activation (calcium flux, GPCRProfiler), DT-110 @ 1.25 mM, n1” value was -9.3%; the “percent activation (calcium flux, GPCRProfiler), DT-110 @ 1.25 mM, n2” value was -9.6%; the “percent activation (calcium flux, GPCRProfiler), DT-110 @ 12.5 mM, Avg.” value came to 50.2%. Moreover, in [2], the “percent activation (calcium flux, GPCRProfiler), DT-110 @ 12.5 mM, n1” value amounted to 55.9% and the “percent activation (calcium flux, GPCRProfiler), DT-110 @ 12.5 mM, n2” value turned out to be 44.5%. Moreover, in the experiment with NMUR1, the “percent activation (calcium flux, GPCRProfiler), DT-110 @ 1.25 mM, Avg.” value was determined as 0.5%; the “percent activation (calcium flux, GPCRProfiler), DT-110 @ 1.25 mM, n1” value is 1.3%; the “percent activation (calcium flux, GPCRProfiler), DT-110 @ 1.25 mM, n2” value was -0.4%; the “percent activation (calcium flux, GPCRProfiler), DT-110 @ 12.5 mM, Avg.” value is -0.1%. In the experiment with NMUR1, the “percent activation (calcium flux, GPCRProfiler), DT-110 @ 12.5 mM, n1” value was -0.7% and the “percent activation (calcium flux, GPCRProfiler), DT-110 @ 12.5 mM, n2” value was 0.5%.
